# Reference: the supplement of paper PMC10126150
# ± gives the standard deviation of the averaged measurements.
# Test system: ATP
# Assay: switch fluorescence ratio, 500 uM ATP over buffer (Cy3 cluster intensity, sum of 5 cycles each) (fold (ratio)); higher = stronger signal-on switching upon ATP binding; sequences stand for … in TCGTCGGCAGCGTCAGATGTGTATAAGAGACAGTTTTTTTTTTTTTTTTTTTTTTTTT…TC
# Conditions: aptamer strand: ATP DNA aptamer (quencher-CACCTGGGGGAGTATTGCGGAGGAAGG + anchor), 100 nM annealed; ATP concentration: 500 uM
# Method in brief: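 Imaging in selection buffer was followed by imaging after 15 min with 500 uM ATP at 22 °C, for Cy3-labelled switching-strand clusters annealed to 100 nM quencher-labelled ATP aptamer on a modified Illumina MiSeq flow-cell. Five of these buffer/ATP cycles ran, separated by NaOH stripping and re-annealing. The fluorescence ratio per cluster is summed target-cycle over summed buffer-cycle Cy3 intensity, averaged per switch-domain sequence; clusters outside 100-1000 RFU were removed.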
# 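Further: ATP exposure 15 min at 22 °C before imaging.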
row,Sequence,switch fluorescence ratio
1,TGTGTCTGTT,0.9933 ± 0.0025
2,TGAGGAGGGC,1.02 ± 0.08
3,CAGGTCTTAA,0.9719 ± 0.0054
4,GTTGGGGTCG,0.998 ± 0.037
5,AGAGGATGTA,1 ± 0.056
6,CCTTTGTTGG,1.01 ± 0.013
7,TTTCGACAAG,1.07 ± 0.1
8,CACTTGCAGA,0.999 ± 0.013
9,CGGGAAGCAC,1.53 ± 0.34
10,GCAAGATTTA,1.01 ± 0.019
11,GGTACGGGGG,1 ± 0.013
12,TTAGGCTTGG,1.06 ± 0.067
13,TATTTAGGAG,0.999 ± 0.021
14,TTAAGACTTT,1.02 ± 0.032
15,TTGGGAAAAT,1.01 ± 0.05
16,GAGGTTGTAG,0.994 ± 0.021
17,TAGGCGTGCG,0.976 ± 0.052
18,ACGGGCGGGC,1.29 ± 0.032
19,TTCGCGACTT,0.987 ± 0.029
20,CGAGAGGGTG,1.03 ± 0.02
21,CAATGGCCTC,1 ± 0.047
22,CTGGGATTGG,1.001 ± 0.0039
23,TTGCGGGTGA,1.01 ± 0.059
24,GAAGTAGGTG,1.02 ± 0.012
25,GGGTAGAGGG,0.987 ± 0.049

row,Sequence,switch fluorescence ratio
1,CGGGTGAGCA,0.996 ± 0.026
2,AGGCGTGAGG,1.01 ± 0.049
3,GAGGCTAGTG,0.988 ± 0.0092
4,AAGGGATGCT,1 ± 0.011
5,AGTGCTTTTG,0.978 ± 0.018
6,CGGGTATGTA,1 ± 0.0022
7,GGTGGGGTCG,0.991 ± 0.046
8,GGCTCATTGA,0.984 ± 0.029
9,ATCGTTATTA,1.02 ± 0.018
10,TATGGTTCGC,0.997 ± 0.055
11,ACTTTATGTG,0.996 ± 0.035
12,GATAGAAAGA,0.964 ± 0.025
13,GATAGTGGTT,1.022 ± 0.0078
14,TTCTAGGGGT,0.966 ± 0.012
15,GATTGATGGG,0.995 ± 0.024
16,AAGGTTGGTG,1 ± 0.034
17,TTATTTAGCA,0.987 ± 0.038
18,ACGGGGGTAA,1.18 ± 0.3
19,TATGTGGGCC,0.97 ± 0.041
20,TAAGCCATTA,1.01 ± 0.0038
21,AAGATGTTGG,1.01 ± 0.04
22,TTTAGTATGG,1.02 ± 0.042
23,GAGTGGGCCT,0.963 ± 0.044
24,ACGTCAGGGT,1.0361 ± 0.00046
25,CCATGTGTGT,1.0078 ± 7.5e-05

row,Sequence,switch fluorescence ratio
1,GGGAGTGGTG,1.12 ± 0.17
2,CGGAGGCAGG,1.21 ± 0.28
3,GTTTCTGGTG,1.13 ± 0.064
4,CAGGGGAATG,0.994 ± 0.021
5,GGGTGTAAAA,1 ± 0.022
6,GGGGTGTTCT,1.02 ± 0.045
7,GCGGGCAGGA,1.02 ± 0.021
8,CTTGTTTAAC,0.993 ± 0.035
9,TCCAACTGCA,1.5 ± 0.087
10,GGAGCTTTGT,0.98 ± 0.015
11,AGTGACGCTC,1.08 ± 0.024
12,TTCCCACCGT,1.06 ± 0.031
13,AGTGTGGTTA,1.005 ± 0.01
14,AGTAGCTTTT,0.997 ± 0.016
15,CTGGATTAAT,1.02 ± 0.04
16,GAGGTACAAA,1.013 ± 0.01
17,TCGGTGTTTC,0.962 ± 0.017
18,TATGCTAGGG,0.977 ± 0.036
19,GATTATAATC,1.01 ± 0.015
20,AGCTTCAAAT,1 ± 0.017
21,GCAACAGCAA,1.04 ± 0.015
22,AAATCGTCCA,0.992 ± 0.057
23,GCCCGGATTT,1 ± 0.047
24,TTAAGGTGTG,1.02 ± 0.041
25,AGGTGTTATC,0.9933 ± 0.0015

row,Sequence,switch fluorescence ratio
1,ACTTAGTCA,1.02 ± 0.021
2,CGTAGAATGC,1.44 ± 0.082
3,AGAGCCGCTG,1.02 ± 0.068
4,AGTGGGAATG,0.9595 ± 0.0078
5,TGCAGGAATG,2.17 ± 1.6
6,GCACAAGATG,1.0073 ± 0.00098
7,GAACCTTGAC,1.61 ± 0.14
8,TAGTGTTTGT,0.979 ± 0.017
9,CGTTGTATAG,0.971 ± 0.016
10,TGGAGAGTAG,1.01 ± 0.032
11,ATGGAAAAGC,1 ± 0.056
12,TAGGCCTCGA,0.985 ± 0.026
13,CGAATCGCCT,1 ± 0.022
14,CTGAGCGGCT,1.05 ± 0.051
15,AGGTAATGCA,1.012 ± 0.0037
16,TTTATTGGAC,1.01 ± 0.078
17,AGAGCATACT,2.12 ± 0.22
18,TTTTTGAGGT,1 ± 0.025
19,CTTTGTGCGT,0.99 ± 0.029
20,ACGGATATTA,1.01 ± 0.0031
21,TAGGGATTTC,0.997 ± 0.019
22,ACTACCCTCG,1.18 ± 0.065
23,AAATTCCGGG,1.02 ± 0.035
24,CCTTATCCG,1.07 ± 0.068
25,TGTTATTTGT,0.975 ± 0.048

row,Sequence,switch fluorescence ratio
1,ATAAAGAAGC,1.02 ± 0.022
2,TCCTATATAA,1.03 ± 0.058
3,TTTATTGGCG,1.01 ± 0.035
4,GTGTTTAATT,1.03 ± 0.035
5,TTTGGAGTTT,0.987 ± 0.053
6,TAGAGGGTGC,0.967 ± 0.052
7,GGACATAATT,1.01 ± 0.029
8,TTACGACGAC,2.21 ± 0.096
9,AGGCTGTTCT,0.991 ± 0.059
10,TTTGCCGTTC,1.01 ± 0.042
11,AATAAATTTA,1 ± 0.016
12,AAAAAAATCC,1.01 ± 0.07
13,ATTTGGTGTT,1.01 ± 0.032
14,CTGGGGGTA,0.9889 ± 0.0083
15,AGGGGCGTGG,1.01 ± 0.046
16,AACGGTGTTT,1.03 ± 0.045
17,CGGTTTTAAT,0.99589 ± 0.00077
18,AGTCAGAGTA,0.9821 ± 0.004
19,ACACCCTTAT,1.127 ± 0.011
20,AAGTGAGTGC,1 ± 0.059
21,ACGAGGCCGG,0.952 ± 0.077
22,AAGTTTAGAA,1 ± 0.012
23,AATGCAGATT,1.031 ± 0.008
24,ATTGGGAAAA,1.03 ± 0.019
25,GGGGAAAGAA,1.02 ± 0.064

row,Sequence,switch fluorescence ratio
1,TTTGTAGAAC,1.02 ± 0.036
2,GTTTTTTCAT,1.02 ± 0.023
3,AAAATCACGG,1.14 ± 0.1
4,CCGGGAAAGC,1.18 ± 0.25
5,TTAAGCCGGT,1.04 ± 0.036
6,AAAAATGGTG,0.981 ± 0.033
7,ATAAGGTGAG,0.998 ± 0.035
8,TTTGCGGGAC,1.57 ± 0.47
9,ATGTATTACT,1.03 ± 0.033
10,CTAGTAGGGG,0.984 ± 0.022
11,TTGGAGTTTG,1.02 ± 0.051
12,ATTATTCGGA,1.008 ± 0.0027
13,TTTGATTCGG,0.983 ± 0.017
14,TCTAAGACGT,0.957 ± 0.018
15,ATAAGTGGGA,0.986 ± 0.076
16,TTGGGACAAA,1.05 ± 0.061
17,CTGTTTTGGT,1.008 ± 0.0028
18,GGAATCGGTC,1 ± 0.051
19,CGAGTGGCGA,1.077 ± 0.0022
20,ACTTTACTTA,1.33 ± 0.02
21,CCAACAGGTT,1.69 ± 0.079
22,TCAGGAAAAG,0.989 ± 0.019
23,GTTTTTGGTA,0.986 ± 0.021
24,CGGGGTAATC,1.03 ± 0.047
25,GGGTCAACGT,0.987 ± 0.015

row,Sequence,switch fluorescence ratio
1,ACTTCACTGC,1.34 ± 0.042
2,GATGTGGCTT,0.961 ± 0.015
3,AAGGGAGGGG,0.987 ± 0.028
4,AAAAGACGGT,1.015 ± 0.0016
5,TACTTCCTCC,3.8 ± 0.44
6,TTGGGCGGTG,1.01 ± 0.018
7,TTTTAGGTCG,0.987 ± 0.013
8,TCAAAGGGCG,0.99 ± 0.049
9,CGGCTTACGT,0.993 ± 0.016
10,GCTGGATGGC,0.993 ± 0.025
11,TTCAAAATTA,0.9913 ± 0.0096
12,TTATTCAAAA,1 ± 0.023
13,CGTTAAACGT,1.01 ± 0.036
14,CGTAGGATTG,1.02 ± 0.03
15,TAAAATAGTC,1.02 ± 0.034
16,GTTTATAGGT,0.9815 ± 0.0077
17,TGGATGGGGA,0.98 ± 0.028
18,CCATCATAGA,0.9887 ± 0.0061
19,TTGTAACATT,1.015 ± 0.0014
20,GATTGTGGGG,0.969 ± 0.015
21,TATAAGTAGT,0.956 ± 0.011
22,ACCGTAGCGG,1.12 ± 0.023
23,TAAAGGGGTG,1.01 ± 0.038
24,TTTCGAATTC,1.006 ± 0.0084
25,TATACAACGA,1.03 ± 0.021

row,Sequence,switch fluorescence ratio
1,GCCCGGAGAC,1.71 ± 0.025
2,CCTGGACTCG,1.02 ± 0.03
3,AATGTATGTT,1.032 ± 0.0074
4,TTGAACGGGT,1.07 ± 0.1
5,GTTGCATTAT,1.028 ± 0.0041
6,AAAGTCGTTC,0.977 ± 0.028
7,TGTCCGGGGG,0.994 ± 0.029
8,AAGTAGGAAA,0.999 ± 0.013
9,TGAGCCTTGG,0.995 ± 0.017
10,AAGGGCCTGC,0.9723 ± 0.0039
11,AAAAGGGGTG,1.09 ± 0.025
12,TTATTAAATC,1.008 ± 0.0064
13,GCAGCTGGCG,1.04 ± 0.017
14,GGTTTAAATG,1.0317 ± 0.00089
15,CTTATTTGGC,1.032 ± 0.0017
16,TCGGCCACAG,1.05 ± 0.02
17,TCGAGTCGGT,1.02 ± 0.034
18,TAATTATGAG,0.9902 ± 0.0071
19,AGGGTGAGGC,0.992 ± 0.06
20,TTACTTGTGG,0.988 ± 0.024
21,TTTTTTTTCT,1.02 ± 0.067
22,TATAGGCGCT,0.994 ± 0.035
23,AACTGGTTG,0.9804 ± 0.009
24,ATTTAACTTA,1.008 ± 0.0016
25,TATGAAGTTG,0.985 ± 0.015
